{"source": "patent US7399752", "target": "LS-Rg, chimeric protein of the extracellular domain of human L-selectin joined to the Fc domain of a human G2 immunoglobulin (human) (UniProt P14151)", "sequence (P14151 39-332, change not shown)": "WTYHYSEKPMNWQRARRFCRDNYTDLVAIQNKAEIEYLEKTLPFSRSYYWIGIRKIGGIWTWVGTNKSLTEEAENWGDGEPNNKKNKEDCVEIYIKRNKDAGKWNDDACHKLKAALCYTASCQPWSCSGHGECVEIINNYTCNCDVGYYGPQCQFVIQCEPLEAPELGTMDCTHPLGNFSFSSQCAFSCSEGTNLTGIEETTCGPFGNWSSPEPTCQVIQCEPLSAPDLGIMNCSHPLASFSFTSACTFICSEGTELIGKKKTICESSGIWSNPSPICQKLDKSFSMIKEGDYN", "assay": "competition with radio-labeled 2'-F RNA ligand LF1807 for purified LS-Rg", "data": [{"substance": "DREG-56, L-selectin specific blocking monoclonal antibody", "values": [{"measurement": "concentration at which inhibition was complete", "value": 300, "unit": "nM"}]}]}
